Reference: paper PMC8384837, “Expanding the binding specificity for RNA recognition by a PUF domain”

What was measured:
[1] = target: PUF variant QFR/VFQ (human, UniProt Q14671 828-1176, S863Q;R864F;Q867R;N899V;Y900F); assay: EMSA; 10 mM HEPES pH 7.3, 50 mM NaCl, 2 mM DTT, 0.05% Tween 20, 0.1 mg/ml BSA, 0.1 mg/ml yeast tRNA; ~10 nM RNA, 0-1 uM protein, 1 h on ice; 1.2% agarose gel, 1x TBE, room temperature; conditions: protein: recombinant; tags: N-terminal GST (pGEX-6P-1) removed by HRV3C protease; label: 5' 32P
Chain of PUF variant QFR/VFQ (Q14671 828-1176 S863Q/R864F/Q867R/N899V/Y900F): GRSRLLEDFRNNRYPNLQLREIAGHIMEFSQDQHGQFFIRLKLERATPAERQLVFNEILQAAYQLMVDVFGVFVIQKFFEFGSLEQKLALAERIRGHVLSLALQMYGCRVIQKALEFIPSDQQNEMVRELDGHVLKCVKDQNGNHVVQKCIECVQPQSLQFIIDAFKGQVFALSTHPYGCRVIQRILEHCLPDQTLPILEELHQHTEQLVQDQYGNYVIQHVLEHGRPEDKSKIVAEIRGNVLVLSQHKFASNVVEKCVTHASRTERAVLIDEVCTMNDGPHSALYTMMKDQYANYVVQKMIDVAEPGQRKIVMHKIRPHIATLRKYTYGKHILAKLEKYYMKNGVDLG

[2] = target: PUF design 2 (human, UniProt Q14671 828-1176, C935T;R936H;Q939E;N971T;H972F;Q975R); assay: as above; conditions: protein: recombinant; tags: N-terminal GST (pGEX-6P-1) removed by HRV3C protease; label: 5' 32P
Chain of PUF design 2 (Q14671 828-1176 C935T/R936H/Q939E/N971T/H972F/Q975R): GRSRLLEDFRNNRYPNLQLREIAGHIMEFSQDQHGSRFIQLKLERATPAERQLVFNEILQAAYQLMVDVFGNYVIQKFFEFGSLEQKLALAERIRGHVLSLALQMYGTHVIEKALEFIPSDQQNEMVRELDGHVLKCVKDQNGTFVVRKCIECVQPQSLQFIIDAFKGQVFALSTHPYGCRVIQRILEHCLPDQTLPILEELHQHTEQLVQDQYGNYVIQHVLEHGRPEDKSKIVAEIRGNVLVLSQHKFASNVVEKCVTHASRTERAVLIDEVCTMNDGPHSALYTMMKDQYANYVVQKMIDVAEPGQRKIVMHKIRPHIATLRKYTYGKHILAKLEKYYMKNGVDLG

GGUAAGUGUAAAUAGUCUGCAU (ssRNA) [wild-type NRE RNA]
binding result [1]: no binding | binding result [2]: no binding

GGUAAGUGUACGUAGUCUGCAU (ssRNA) [design 2 target RNA]
Kd [2]: ~45 nM

GGUAAGUGUAAAACGUCUGCAU (ssRNA) [QFR/VFQ target RNA]
Kd [1]: ~110 nM
